Measurements as given in publication PMC10175742.

Biological target: N-cadherin (UniProt P19022)
Assay: confocal 3D colocalisation
Conditions: reference: nonfailing control (NFC) heart tissue; sites S637,S647,T649,S650

αT-catenin (CTNNA3) (from UniProt Q9UI47) DCM heart tissue
other: Pearson's correlation coefficient: stronger; reference 0.55 ± 0.04
